The values below come from a protein production outcome set (Wang et al. 2014).

The data set is described as follows: label from the status in PepcDB records.
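Also: failed if final PepcDB status was selected cloned or expressed and not failed if soluble or beyond.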

On to “MNAVHFGAGNIGRGFIGEILAKNGFHITFVDVNETIIQALKERKSYTIELADASHQQINVENVTGLNNMTEPEKVVEAIAEADLVTTAIGPNILPRIAELIAQGIDARAEANCQKPLDIIACENMIGGSTFLAEEVAKYLKNPAYAEQWIGFPDAAVDRIVPLQKHEDPLFVQVEPFCEWVIDDTNRKAKEIQLEGVHYVADLEPYIERKLFSVNTGHATVAYTGALLGYQTIDEAMQDALVVAQLKSVLQETGKLLVAKWNFDEQEHAAYIEKIIQRFQNKYISDAITRVARTPIRKLGAQERFIRPIRELQERNLVSPHLLAMIGIVFNYHDPEDEQSRQLQEMLDQESVDTVIAEVTGIEDPETVKNIKQNVERYARPQVA”, for which the protein production entry was “failed”.

As to “MNCAISGEVPVEPVVSTKSGLLFERRLIERHISDYGKCPVTGEPLTIDDIVPIKTGEIIKPKTLHTASIPGLLGTFQNEWDGLMLSNFALEQQLHTARQELSHALYQHDSACRVIARLKKERDEARQLLAEVERHIPAAPEAVTANAALSNGKRAAVDEELGPDAKKLCPGISAEIITELTDCNAALSQKRKKRQIPQTLASIDTLERFTQLSSHPLHKTNKPGICSMDILHSKDVIATGGVDATAVLFDRPSGQILSTLTGHSKKVTSVKFVGDSDLVLTASADKTVRIWRNPGDGNYACGYTLNDHSAEVRAVTVHPTNKYFVSASLDGTWCFYDLSSGSCLAQVSDDSKNVDYTAAAFHPDGLILGTGTSQSVVKIWDVKSQANVAKFDGHTGEVTAISFSENGYFLATAAEDGVRLWDLRKLRNFKSFLSADANSVEFDPSGSYLGIAASDIKVYQTASVKAEWNLIKTLPDLSGTGKATCVKFGSDAQYVAVGSMDRNYGYLVFLVMKKPTSMMTLRKTREQSVKNSDRTFQMSISSVISLKFLKFCCILQYLQQWGRIS”, the protein production entry is reported as “failed”.

Consider “MNDFSCPAIAFPSFLNPVIVHLGPIALYWYGLGYVVGILFVWWYAQKLLKKQSLWYANHPPMDKEKIGDFVVWSAISIVVGGRLGQVLVWDPIYYFSHPTAIITIWNGGMSFHGGLIGITIAMIWFARKNNIKIRAMFDIIAIGAPIGIGIVRICNFINQELWGNVTTHPWAVCFPLDPYYLPRHPSQLYEALMEGFLLFVILFILTFAFKALKRPGTVSGIFIIGYAIARSISEIYRAPQEDPEWFSTLFHSTGFTYGMALSLPMLFLGFYLLFQAFKDESTKNGHTQTKN”, for which the protein production result was “failed”.

Take “MNDFSLELPVRTNKPRETGQSILIDNGYPLQFFKDAIAGASDYIDFVKFGWGTSLLTKDLEEKISTLKEHDITFFFGGTLFEKYVSQKKVNEFHRYCTYFGCEYIEISNGTLPMTNKEKAAYIADFSDEFLVLSEVGSKDAELASRQSSEEWLEYIVEDMEAGAEKVITEARESGTGGICSSSGDVRFQIVDDIISSDIDINRLIFEAPNKTLQQGFIQKIGPNVNLANIPFHDAIALETLRLGLRSDTFFL”: the protein production entry is “not failed”.

With “MNDIAREPVLGGAPAPAVPQPLRVRFCGSGSEYFRIWIVNLLLTIVTLGIYSAWAKVRTLQYFYRNTQLGGASFDYHGSPTAILKGRAIIFVLALAFNLSGQVSPVLTLLLLAAIGLVFPWLLVRSLRFRMANSSYRGLRFAFTGKDAQAYKVFLLWPVLTVFTFNLLAPFAHQRFKQYQHRNTRFGTTSFDFSATAGQFYGVYLRTFGMAILAVMAVGVVVVLAGVSAAAGAASGGRAIAVSLMVLAMYAAMLFLGPYFLARLQNVVWNHTTLGAHRFQSQVSAGKLFWIFISNAALLIVTLGLFTPFARVRSARYKLESVTMLAAGSLDTFVAGESTRVGALGDAAVDWYDIDIAL”, the protein production entry is “failed”.

As for “MNDITIIGASQNNLKNINITIPKHLVTVFTGRSGSGKSSLVFRTIAAESEQLLNESYSSYIQFHLNKQPKPKVNAIKNLPVAMTISQKRFNGNSRSTVGTVSDIYASVRLLWSRIGEPFVGYSDAFSFNSPNGMCETCEGLGYIEDINLNELLDWNKSLNEGAINFPSFGPDKERGKAYRDSGLFDNDKKLKAYTKEELDLFLYQEPIKLKKPPEEWRKSAKYVGLIPRFRRIFLGDKEFNKKRYAKHLKNVVENKVCPTCNGQRLNSKILSCKIMGKNISDFTQMTVKENLAFLNKLNNSTAQFIIEPLRKQLEALDYIGLSYLTLDRVTTSLSGGEAQRLKLIRHLNSSLSDLVYIIDEPSVGLHPEDIAKINEILKSLKHKGNTVLIVEHDPDVIKEADYIIDMGPSSGAQGGEITFKGTYKKLLSSDTSTGEALRIKHHLKNEIREAKSFYHLGPVTQNNLNNVTVDIPKHVLTVLTGVAGSGKSSLVKAGFAKNDNAVFMDQKAIQGSDRSNLLTYLGVFDRVRNFFSKETGLNKSMFSYNSKGACPNCGGKGYIETELAFMGEFSQTCEVCHGKRYKPEVLNATIDGYSIADFLELTVDEGIRFFDKENEIQSKLQAISKTGLNYVTLGQPLSTLSGGEIQRVKLGQYLNDDVTDSIFIFDEPTTGLHEADIPILINCFNDLIEQNNTVILIEHNLSIMCDADWIIDVGPGPGLDGGKIQFSGYPINFVKENKTLTSKHLKLYIAND”, the protein production result is listed as “failed”.

On to “MNDRARELASRLIRNFNEASLEHEVREPLYESAAARLGTGTVAHKLGASVDVVAPGKRSCPYHFHHAQEEMFVIIEGEGSLRVAGEMLPIKTGDVLFIPAGPEYPHQIINTSQAPLKYLSISTRETPEVCEYPDSGKYQAMVSANGARVFTANQRTTENVDYWDGEPLEHHHHHH”, for which the protein production result was “not failed”.

As to “MNDSTMKCIKLAAIVCIAIGLSACSEQKTTQEYILASKVYLQKLEYGAAIVELKNAVRQTPKDAEARYYLAKAYSEQGSYVNAEKELDKAEQFGLEMNLLLPDLVFIKSKLNKVEEVYALMENVESLNDEQYIVVLTYAGITALNNKELERAQDFIAQANTISETSLYSKMGAAYLLHAEDNFSKGIEIIDTVLGESPDFTEALLLKGHLLFSSEQFIQANGVYTKYRQLHPFANKVLFFEVNSLISAGEYEQADVKATELIKRFKNSPLAHQYKAQVEYQKKNYEDARSYAISAAQQGNEFIISKLIAGMSSYQLGDIEQAYGYLNQTEKYLPSSHPIKRILASIKIKLGYTTEGIVQLSALEGLTTSDAGLFQSSSIELIKAGDFENAIKLLDKASIIAPENASVAAQKGMLKLSQNDKTGIASLEHALNLDPNLKDVEFSLAIQYLDNGQEKKVRSIAKKWIASQDNQASGYLLLGIIHSNNNLSSKAEENYQKALSIEPENYTALFYLADIAEDADRILDAVDYYQKVVTILPEHKAAIQKLSRLQLKHNNTSNNVEFLSTLAAKHPKNITLALGLAQNLRLNNELKKAITLLESMSDWARSSQQYWAILGDNYLQAKSHTKAKECFKKVLALNPNNFVAHLRLIAISEVKRNYKQALTYTISSLERFEHNTRLLILKANFELLTGDLVSAKKTLRYLQEQKVSHHLINKFVGELALADKDYPSAIDNFHELYQKSPTALNVMLLARALSFNGQKAEAAQTIESYLSRMIKDHKVRLLLAELYMQFDEAKAIKHLEIINQSEQNNAVVLNNLAMLELKRARPEQALLYAEKAFELKSGIHQISDTYGAALVTVKNFDSAIIVLLNAINQGSEAETTYVNLTKAYLATGKTDKVKALLDSIKDRTFYSKVQAMR”, the protein production entry is recorded as “failed”.

“MNEDGNDTPRPLGEVPEFRRIRSGPLPPHQNIPPRRRAPADQLPWLPSAAARRRRAALLLCGFLSAVVLLVSGSSWAVTGWLSDQLHRYDVFTGLLDENRPPASQGALNFLVIGSDDRSGLDSRQRSELGVGNVEGRRSDTMMLVHLNHQREHITVVGIPRDSWVRIPGHGPDKINAAYSLGGPQLAVQTVEAATGVRIDHYVEIDFTGFVEVVDTLGGITVCLPEAIHDEKAHLSLEAGTHRLQGTQALAFARTRKSPHGDLDRIDRQQQVLAALLDEALNAQILSDPARLAQFVETALGSITVDDTLDTAALIQLGTQLRSLGLDDVTFTQVPVDRIDFWTPSGEVAVTWHEQHATELFTAIAADRPIPQPQSAEDSALPSPDEVTVEVYNGTTIPGLGAQVRVELLESGFQVPESAGNWPQQDLAETLVRYSPEREDAATLLVESIPGARAEVDPGLGGRVQVIAGVNHTGVAVPAHAASPIAEQPVDVGGRETVHTRTAAENVCR”: the protein production result was “failed”.

As to “MNEELKKSIAASIENTRFDILQMIELGRELIDYPDEIHHGPVVSMGVPKDTLPKWDDIQILTAQLHKKPLIDDAPVDTQLVIGPRAQKPLVLDIPLLVGDMSYGALSKRAKQALSKGADLAGTAICSGEGGILGDELELNQSYMFELGSARNGLKKNSDLSQFSKDFKGKVKAFHFKGGQAAKTGTGGHLPGGKVTEEIAKARQIEVGKDAISPSTFADFHTPRDFADFADQIRDQMGGIPIGFKISANHIEDDMRFALDAGADYIILDGRGGSTGAAPGIFRDHISVPTIAALARARKFLDVAGHEKGAKNSVTLIITGGLRIPSDFIKALALGADGIALANSALQAIGCTGARICYSGDCPAGIATHAQHLVNKIDVDARARDLALFFNGSVHLMKIMTRACGHHSLREFSRDDICTWKAEISRLAGIPYAGVDPSNP”, the protein production result is on record as “failed”.

On to “MNEFAQSPRSCVLGCSGLGYSVRGTPLLSDVDLSIATGETLAVVGPNGSGKSTLLKLLAGIQKPGSGAVRLGEQALAAMSRRDVARLLAVVEQQAETSDAVTVLDAVELGRTPWLSALEPWSANDDAIVRQALQDVDMLHMQKRAWHTLSGGERQRVHIARALAQRPQILLLDEPTNHLDIQHQLTILGLVRALPVTTVIALHDLNQALDCDRVAVMEKGRLVALGTPVEVLTPKRLLSTFGVVAHWLTDPFDGAKILRLRSR”, for which the protein production result was “failed”.

Consider “MNEFEDLLNSVSEVNPGDVVTAEVLTVDNGQANVVIEGTGVEGVLTLRELTNDRDADINDFVKAGDTVEVLVLRQVVGKDTDTVTFLVSKKRLEARKAWDKLVGREGEVVTVKGTRAVKGGLSVEFEGLRGFIPASMIDTRFVRNTEKFVGQEFDAKIKEVDAAENRFILSRREVIEEAAKEARAEVFSKISEGAVVTGTVARLTSFGAFIDLGGVDGLVHVTELSHERNVSPKSVVSVGEEVEVKVLSIDEEAGRVSLSLKATTPGPWDGVEQKLAQGDVVEGKVKRLTDFGAFVEVLPGIDGLVHISQISHKRVENPKDVLSVGQEVTVKVLEVNAADERVSLSIKALEERPAQAEGDNKEEKRQSRPRRPKRESRRDYELPETQTGFSMADLFGDIEL”, for which the protein production entry was “failed”.

On to “MNEFTAVKELSEKLLEDYKTESSFFFASPTRTILAEGEFTTVKHHEIESFPELVQAVLRNAKQAGNPNPIVVGALPFDRRKEVQLIVPEYSRISERLQLDPTNHLEINRNLTFEMTPVPDHEVYMKGVKQGIEKIKDGDLKKIVLSRSLDVKSSGKIDKQKLLRELAEHNKHGYTFAVNLPKDENENSKTLIGASPELLVSRHGMQVISNPLAGSRPRSDDPVEDKRRAEELLSSPKDLHEHAVVVEAVAAALRPYCHTLYVPEKPSVIHSEAMWHLSTEVKGELKNPNTSSLELAIALHPTPAVCGTPMEEAREAIQKIEPFDREFFTGMLGWSDLNGDGEWIVTIRCAEVQENTLRLYAGAGVVAESKPEDELAETSAKFQTMLKALGLNDSSLNEK”, for which the protein production entry is “not failed”.

Regarding “MNELPIILLSPLIGGALAWLIRVKGIREAIGVVSSAIPLYFLIKLYPALEGEPIRYSLNVGGFELTLALSHISWIFAMIAAVVGLSAVLGLVSTAKDSNEWLFALMSLAGALGVFLANDFVVFFLSWEIMTFASFMMVFKYNRHASLKYFVLSIAGAYAMLLAIGIIYAKTGSLSFPEISAIFRQDAMMGMMGGGGVFTKTETLLIYALFLVAFGVKAGMFPLHVWAPDAYSETNQSYTAMFSGVLSKTGVYGFFLLYLLMYGKLAITLGNVRSAPTFGYIIAFLGGLTIMVGGILAALQEDIRKLFAYSSISQIGYILIGLGIGTPLGIAAATYHAISHALFKGLFFLIVATIIYRTGKTEFKDYGGLAEKMPITFAMAFVAILSLAGIPPMAGFASKWLIFEAVISRNLPILGAMVFFGSAIGFVYLIRFTYAVWFGQRPSDLEDVKDAPLPLAIGMGILAILNVIFGVAPGLVARELNKLFSNPPIGGTIWELDLGFGRYNGLLLSIWLVIGLIIAAILYFMGAGVRKVPVTDTYQSGNPVTMEYNLTIRRNFFLPLKEAMAFWLKMSFDRLYHDIWKAIEELADLARSYVYNGNIQAYAWYLAIILLILVAMGV”, the protein production entry is given as “failed”.
